# Experimental data published in publication PMC12374583 (2025).
# B1: Complement C3 (peptide)
# chain: SSKITHRIHWESASLLR
# Biological target: CR3 (Homo sapiens, UniProt P11215)
# Experiment: MST
binder,measurement,value
B1,Kd,5.73 nM
